Common to all, as to type: biochemical
For assay [1], the system named is trypsin. The experiment in a line: LC/MS analysis of reaction between substrate compound and trypsin. The conditions noted are these: Example 3; 37° C., 15 minutes. How it is done: (§1) Distilled water was added to 10 μL of 2×HMT buffer (100 mM Tris-HCl (pH 8.5), 20 mM MgCl2, 40 mM KCl, 20 mM 2-mercaptoethanol, 500 mM sucrose) and 1 μL of a BocLysMCA solution to adjust the total volume to 20 μL. To the resultant solution was added 30 μL of a peptidase solution (20 mg/mL trypsin or 20 mAU/mL lysyl endopeptidase), which was then mixed and incubated at 37° C. for 15 minutes. Then, the solution was applied to a liquid chromatograph mass spectrometer (LC/MS) for analysis. Analysis was performed by the same method as that for the above analysis except for using monomethylated BocLysMCA (i.e., “BocLys(Me)MCA”), dimethylated BocLysMCA (i.e., “BocLys(Me)2MCA”), or trimethylated BocLysMCA (i.e., “BocLys(Me)3MCA”) in place of BocLysMCA. Analysis was also carried out by the same method except for using, in place of the above-described peptidase solution, an equal volume of distilled water.

Assay [2] deals with lysyl endopeptidase (Achromobacter lyticus, UniProt P15636). The experiment in a line: LC/MS analysis of reaction between substrate compound and lysyl endopeptidase. The following applies: Example 3; 37° C., 15 minutes. As for the experimental part: as §1
In assay [3] the target is T1, Set9 (His-Set9, His-Set7/9) (Homo sapiens, UniProt Q8WTS6).
T1 sequence (Q8WTS6 1-366): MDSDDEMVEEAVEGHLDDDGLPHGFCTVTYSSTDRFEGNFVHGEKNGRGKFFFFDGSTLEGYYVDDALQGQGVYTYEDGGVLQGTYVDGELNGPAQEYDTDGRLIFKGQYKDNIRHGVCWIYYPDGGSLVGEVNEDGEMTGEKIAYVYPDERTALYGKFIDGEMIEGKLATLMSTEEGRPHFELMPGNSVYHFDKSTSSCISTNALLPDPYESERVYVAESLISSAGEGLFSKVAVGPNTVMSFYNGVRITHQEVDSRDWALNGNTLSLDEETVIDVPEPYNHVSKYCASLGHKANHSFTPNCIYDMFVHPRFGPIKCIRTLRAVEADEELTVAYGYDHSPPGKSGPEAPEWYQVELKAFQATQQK
The experiment in a line: Substrate specificity / methylation of peptidyl MCAs by Set9. The conditions noted are these: for methylation of peptidyl MCA by Set9: Example 6, His-Set9 0-1.5 μg/μL, right panel of FIG. 14; for methylation of peptidyl MCA by His-Set7/9: Example 13, AMC and peptidyl MCA fluorescence, FIGS. 25 and 26. How it is done:
When Set9 was adopted as a histone methyltransferase, the following method was used. 10 μL of 2×HMT buffer (100 mM Tris-HCl (pH 8.5), 20 mM MgCl2, 40 mM KCl, 20 mM 2-mercaptoethanol, 500 mM sucrose), 2 μL of a BSA solution (30 μg/mL), 3 μL of His-Set9 (0, 0.33 to 10 μg/μL), and 1 μL of distilled water were mixed and then incubated at room temperature for 1 hour. Then, 2 μL of SAM (10 mM) and 2 μL of a peptidyl MCA solution (0.6 mM) were added thereto, which was then incubated at 37° C. for 1 hour. Thereafter, 30 μL of a trypsin solution (20 mg/mL) was added thereto, followed by incubation at 37° C. for 15 minutes. Then, the fluorescence intensity of the solution was measured at an excitation wavelength (λex) of 390 nm and a fluorescence wavelength (λem) of 460 nm. The final concentration of His-Set9 during the measurement of fluorescence intensity was 0, 0.05, 0.15, 0.5, or 1.5 μg/μL. The results of the assay for measuring histone methyltransferase activity are shown in the right panel of FIG. 14.
When Set9 was adopted as a histone methyltransferase, the following method was used. 10 μL of 2×HMT buffer (100 mM Tris-HCl (pH 8.5), 20 mM MgCl2, 40 mM KCl, 20 mM 2-mercaptoethanol, 500 mM sucrose), 0.4 μL of a BSA solution (150 μg/mL), 5.9 μL of His-Set9 (0, 0.051, 0.17, 0.51, 1.7 μg/μL), and 1.7 μL of distilled water were mixed and then incubated at room temperature for 1 hour. Then, 1 μL of SAM (20 mM) and 1 μL of a peptidyl MCA solution (1.2 mM) were added thereto, which was then incubated at 37° C. for 1 hour. Thereafter, 30 μL of a trypsin solution (20 mg/mL) was added thereto, followed by incubation at 37° C. for 15 minutes. Then, the fluorescence intensity of the solution was measured at an excitation wavelength (λex) of 390 nm and a fluorescence wavelength (λem) of 460 nm. The final concentration of His-Set9 during the measurement of fluorescence intensity was 0, 0.015, 0.05, 0.15, or 0.5 μg/μL. The results of the assay for measuring histone methyltransferase activity are shown in the right panel of FIG. 16.
When Set7/9 was adopted as a histone methyltransferase, the following method was used. 10 μL of 2×HMT buffer (100 mM Tris-HCl (pH 8.5), 20 mM MgCl2, 40 mM KCl, 20 mM 2-mercaptoethanol, 500 mM sucrose), 0.4 μL of a BSA solution (150 μg/mL), 4 µL of His-Set7/9 (0, 0.025 to 0.75 μg/μL), and 3.6 μL of distilled water were mixed and then incubated at room temperature for 1 hour. Then, 1 μL of SAM (final concentration: 0.1 mM) and 1 μL of a peptidyl MCA solution (1.2 mM) were added thereto, which was then incubated at 37° C. for 1 hour. Thereafter, 30 μL of a trypsin solution (20 mg/mL) was added thereto, followed by incubation at 37° C. for 15 minutes. Then, the fluorescence intensity of the solution was measured at an excitation wavelength (λex) of 330 nm and a fluorescence wavelength (λem) of 380 nm or at an excitation wavelength (λex) of 390 nm and a fluorescence wavelength (λem) of 460 nm. The final concentration of His-Set7/9 during the measurement of fluorescence intensity was 0, 0.005, 0.015, 0.05, or 0.15 μg/μL.

*: point of attachment. AMC = Cc1cc(=O)oc2cc(N*)ccc12

lysyl endopeptidase, sequence (P15636 206-473 limits assumed, species assumed): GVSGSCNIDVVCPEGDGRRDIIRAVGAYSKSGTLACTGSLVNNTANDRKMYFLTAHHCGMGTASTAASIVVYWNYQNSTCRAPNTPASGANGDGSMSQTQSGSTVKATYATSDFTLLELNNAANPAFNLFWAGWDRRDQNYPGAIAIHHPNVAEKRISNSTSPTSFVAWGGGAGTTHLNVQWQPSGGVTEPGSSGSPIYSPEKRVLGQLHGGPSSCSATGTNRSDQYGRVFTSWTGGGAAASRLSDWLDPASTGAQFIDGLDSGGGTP

Consider `Cc1cc(=O)oc2cc(NC(=O)C(CCCCN)NC(=O)OC(C)(C)C)ccc12` (centres unmarked) [BocLysMCA, Boc-K-MCA], for which, in assay [1], the “hydrolysis by trypsin (LC/MS peaks)” value is reported as “most BocLysMCA was hydrolyzed”. Moreover, the “hydrolysis by lysyl endopeptidase (LC/MS peaks)” value in assay [2] is recorded as “most BocLysMCA was hydrolyzed”.
“Ac-ARK-MCA (Ac-Ala-Arg-Lys-{AMC}; SMILES CC(=O)N[C@@H](C)C(=O)N[C@@H](CCCNC(=N)N)C(=O)N[C@@H](CCCCN)C(=O)Nc1ccc2c(C)cc(=O)oc2c1; listed as Homo sapiens) [Ac-histone H3 (7-9/25-27)-MCA, acetyl-ARK (human histone H3 7-9 or 25-27)-MCA substrate]”: in assay [3], the “methylation of peptidyl MCA by Set9” value is “little methylation occurred”.
The same measure, in the same setting: the same measure for “Ac-ARTK-MCA (Ac-ARTK-{AMC}; SMILES CC(=O)N[C@@H](C)C(=O)N[C@@H](CCCNC(=N)N)C(=O)N[C@H](C(=O)N[C@@H](CCCCN)C(=O)Nc1ccc2c(C)cc(=O)oc2c1)[C@@H](C)O; listed as Homo sapiens) [Ac-histone H3 (1-4)-MCA]”: “methylation often occurred”.
Take “Ac-ARTKQTARK-MCA [Ac-histone H3 (1-9)-MCA]”: in assay [3], the “methylation of peptidyl MCA by Set9” value is on record as “little methylation occurred” and the “methylation of peptidyl MCA by His-Set7/9” value is “does not methylate”.
Turning to “Ac-KAARK-MCA (Ac-KAARK-{AMC}; SMILES CC(=O)N[C@@H](CCCCN)C(=O)N[C@@H](C)C(=O)N[C@@H](C)C(=O)N[C@@H](CCCNC(=N)N)C(=O)N[C@@H](CCCCN)C(=O)Nc1ccc2c(C)cc(=O)oc2c1; listed as Homo sapiens) [Ac-histone H3 (23-27)-MCA]”, in assay [3], the “methylation of peptidyl MCA by Set9” value is recorded as “little methylation occurred”.
In the case of “Ac-KRSK-MCA (Ac-KRSK-{AMC}; SMILES CC(=O)N[C@@H](CCCCN)C(=O)N[C@@H](CCCNC(=N)N)C(=O)N[C@@H](CO)C(=O)N[C@@H](CCCCN)C(=O)Nc1ccc2c(C)cc(=O)oc2c1; listed as Homo sapiens) [Ac-ERα (299-302)-MCA]”, the “methylation of peptidyl MCA by His-Set7/9” value in assay [3] is recorded as “methylates”.
Turning to “Ac-LKSK-MCA (Ac-LKSK-{AMC}; SMILES CC(=O)N[C@@H](CC(C)C)C(=O)N[C@@H](CCCCN)C(=O)N[C@@H](CO)C(=O)N[C@@H](CCCCN)C(=O)Nc1ccc2c(C)cc(=O)oc2c1; listed as Homo sapiens) [Ac-p53 (369-372)-MCA]”, the “methylation of peptidyl MCA by Set9” value in assay [3] is “methylation often occurred”.
As to “Ac-QLATKAARK-MCA (Ac-QLATKAARK-{AMC}; SMILES CC(=O)N[C@@H](CCC(N)=O)C(=O)N[C@@H](CC(C)C)C(=O)N[C@@H](C)C(=O)N[C@H](C(=O)N[C@@H](CCCCN)C(=O)N[C@@H](C)C(=O)N[C@@H](C)C(=O)N[C@@H](CCCNC(=N)N)C(=O)N[C@@H](CCCCN)C(=O)Nc1ccc2c(C)cc(=O)oc2c1)[C@@H](C)O; listed as Homo sapiens) [Ac-histone H3 (19-27)-MCA]”, the “methylation of peptidyl MCA by Set9” value in assay [3] is listed as “little methylation occurred”.
Same read-out and setting: then Ac-QTARK-MCA [Ac-histone H3 (5-9)-MCA], with “little methylation occurred”.

Values taken from patent US9012166B2, “Method for assaying histone methylation enzyme activity” (Kyushu Institute of Technology, priority 2010, dated 2015).
